From patent US20260184783A1 (Merck Sharp & Dohme, published 2026)
Residue numbers refer to the chain shown, from its start. Names and notes keep the numbering of the source.

T1: human LAG-3-hFc (human, UniProt P18627 23-450)
T1 construct: also called human LAG3-Fc; Human LAG-3-Fc; not shown: human Fc
T1 sequence: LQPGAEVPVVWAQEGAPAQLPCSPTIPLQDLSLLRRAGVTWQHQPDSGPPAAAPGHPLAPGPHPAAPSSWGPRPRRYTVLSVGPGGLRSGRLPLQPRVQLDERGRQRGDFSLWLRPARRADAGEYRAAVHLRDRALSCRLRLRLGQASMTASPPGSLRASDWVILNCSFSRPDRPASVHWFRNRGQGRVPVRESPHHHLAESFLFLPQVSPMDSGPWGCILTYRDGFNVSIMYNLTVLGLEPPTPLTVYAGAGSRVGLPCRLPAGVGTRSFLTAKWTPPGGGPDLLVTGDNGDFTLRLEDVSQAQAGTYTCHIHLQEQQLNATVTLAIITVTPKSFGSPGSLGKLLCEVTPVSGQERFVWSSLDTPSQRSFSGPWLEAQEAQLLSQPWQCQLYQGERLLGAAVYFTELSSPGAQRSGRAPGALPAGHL

T2: human LAG-3 expressed on cells (human, UniProt P18627 23-525)
T2 construct: the transgene used on the cells is not tied to it by number; also called hLAG-3; 3A9.hLAG-3
T2 sequence: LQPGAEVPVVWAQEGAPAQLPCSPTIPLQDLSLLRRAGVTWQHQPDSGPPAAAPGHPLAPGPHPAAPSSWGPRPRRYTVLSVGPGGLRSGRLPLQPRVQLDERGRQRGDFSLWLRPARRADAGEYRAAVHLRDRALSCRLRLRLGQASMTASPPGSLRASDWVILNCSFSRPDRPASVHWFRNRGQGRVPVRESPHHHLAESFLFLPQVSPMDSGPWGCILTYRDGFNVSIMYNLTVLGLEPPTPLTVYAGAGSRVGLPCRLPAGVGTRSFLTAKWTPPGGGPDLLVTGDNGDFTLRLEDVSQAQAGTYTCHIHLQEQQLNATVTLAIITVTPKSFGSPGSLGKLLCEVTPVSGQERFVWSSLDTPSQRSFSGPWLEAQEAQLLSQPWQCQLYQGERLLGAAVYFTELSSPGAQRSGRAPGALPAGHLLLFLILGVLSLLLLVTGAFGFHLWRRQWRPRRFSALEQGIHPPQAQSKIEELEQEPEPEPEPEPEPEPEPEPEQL

B1: F023700842 (F0237611B09(L11V, A14P, R41P, N43K, A62S, A74S, K83R, V89L)-FLAG3-HIS6) (VHH)
VHH: EVQLVESGGGVVQPGGSLRLSCAASGRTFSDYVMGWFRQAPGKEREFVAAISESGGRTHYADSVKGRFTISRDNSKNTLYLQMNSLRPEDTALYYCATTLLWWTSEYAPIKANDYDYWGQGTLVTVSS
notes: also called F023700842-FLAG3-HIS6
B2: F0237611B09-FLAG3-HIS6 (VHH)
VHH: B1 VHH with V11L, P14A, P41R, K43N, S63A, S75A, R87K, L93V
notes: original monovalent anti-human LAG-3 Nanobody; also called F0237611B09-FLAG-His6
B3: F023700706 (1PD102C12 (L11V, A14P, A74S, K83R, I89L)-FLAG3-HIS6) (VHH)
VHH: EVQLVESGGGVVQPGGSLRLSCAASGSIASIHAMGWFRQAPGKEREFVAVITWSGGITYYADSVKGRFTISRDNSKNTVYLQMNSLRPEDTALYYCAGDKHQSSWYDYWGQGTLVTVSS
notes: also called SO 1PD102C12 monomer
B4: F023701192 (1PD102C12 (E1D, L11V, A14P, W52aV, N73Q, A74S, K83R, I89L, W100aF)-HIS6) (VHH)
VHH: B3 VHH with E1D, W53V, N74Q, W105F
notes: monovalent anti-human PD-1 Nanobody variant; not shown: C-terminal HIS6 tag
B5: F023701190 (1PD102C12 (E1D, L11V, A14P, W52aV, A74S, K83R, I89L, W100aF)-HIS6) (VHH)
VHH: B3 VHH with E1D, W53V, W105F
notes: monovalent anti-human PD-1 Nanobody variant; also called Enhanced SO 1PD102C12 monomer; not shown: C-terminal HIS6 tag
B6: F023700275 (1PD102C12(A14P, A74S, K83R)-FLAG3-HIS6) (VHH)
VHH: B3 VHH with V11L, L93I
notes: monovalent anti-human PD-1 Nanobody, parent of F023700706
B7: F023700929 (1PD102C12 (L11V, A14P, A74S, K83R, I89L)-HIS6) (VHH)
VHH: B3 VHH
notes: not shown: C-terminal HIS6 tag
B8: F023701193 (1PD102C12 (E1D, L11V, A14P, W52aV, N73P, A74S, K83R, I89L, W100aF)-HIS6) (VHH)
VHH: B3 VHH with E1D, W53V, N74P, W105F
notes: as for B4

Experiments:
human LAG-3-hFc [1] = molecular target: T1, human LAG-3-hFc; assay: SPR, Biacore T100; human LAG3-hFc captured on anti-human IgG(Fc), Nanobody as analyte; Langmuir with mass transport
Experimental: Kinetic analysis of Nanobodies was performed by surface plasmon resonance (SPR) technology, using the Biacore T100 instrument (GE Healthcare). HBS-EP+(0.01 M HEPES pH 7.4, 0.15 M NaCl, 3 mM EDTA, 0.05% v/v Surfactant P20) was used as running buffer and the experiments were performed at 25° C. Two flow channels of a Series S Sensor Chip CM5 were activated with EDC (200 mM)/NHS (50 mM) and anti-Human IgG(Fc) (GE Healthcare, BR100839) was injected at 5 μg/ml in the supplied immobilization buffer (10 mM sodium acetate pH5.0) to render immobilization levels of approximately 2000 R U. After immobilization, surfaces were deactivated with 1M ethanolamine/HCl (pH 8.5). The flow rate during the sensor preparation was set on 5 μL/min.
Sensorgram processing and data analysis was performed with Biacore T100 Evaluation Software Version 2.0.4 (GE Healthcare). […] Processed curves were evaluated via fitting with the model ‘Langmuir with Mass Transport’.

human LAG-3-hFc [2] = molecular target: T1, human LAG-3-hFc; assay: flow cytometry competition: blockade of 40 nM human LAG-3-hFc binding to MHC class II on Daudi cells; PE goat anti-human IgG
Experimental: A Nanobody dilution series was prepared in assay buffer: HBSS/2% FBS. Prior to the experiment, Fc receptors on the Daudi cells were blocked with human Fc block (BD Pharmingen, 564220) and 5 μg/mL goat IgG (Jackson ImmunoResearch, 005-000-003) for 30 minutes at 4° C. […] 1×10⁵ cells/well were seeded in V-bottom 96-well plates and resuspended in 100 μL/well of the Nanobody/ligand dilution. After 30 minutes incubation at 4° C., the cells were washed and resuspended in 100 μL/well PE-labeled Goat anti-human IgG (Southern Biotech, 2043-09). Samples were incubated for 15 minutes at 4° C., washed, and resuspended in 100 μL/well of 5 nM TOPRO3 (LifeTechnologies, T3606) solution before analysis on FACS CANTO II (BD).

[3] = molecular target: T2, human LAG-3 expressed on cells; assay: flow cytometry on 3A9 cells expressing human LAG-3; anti-FLAG + PE goat anti-mouse
Experimental: (§1) Binding to cell-expressed human LAG-3 was evaluated on human LAG-3 over-expressing 3A9 cells. A Nanobody dilution series was prepared in assay buffer: PBS/10% FBS/0.05% sodium azide. 1×10⁵ cells/well were transferred to a 96-well V-bottom plate and resuspended in 100 μL Nanobody dilution. After 30 minutes incubation at 4° C., the cells were washed with 100 μL/well assay buffer and resuspended in 100 μL/well of 1 μg/ml anti-FLAG (Sigma, F1804). […] Samples were incubated for 30 minutes at 4° C., washed, and resuspended in 100 μL/well of 5 nM TOPRO3 (LifeTechnologies, T3606) solution before analysis on FACS CANTO II (BD).

[4] = molecular target: T3, human PD-1 expressed on cells (human, UniProt Q15116 25-288); assay: flow cytometry competition: blockade of human PD-L1-hFc binding to CHO-K1 cells expressing human PD-1; PE goat anti-human IgG
T3 construct: the transgene used on the cells is not tied to it by number; also called hPD-1; CHO.hPD-1
Experimental: (§2) Ligand competition assays were performed on human PD-1 over-expressing CHO cells. A Nanobody dilution series was prepared in assay buffer: PBS/10% FBS/0.05% sodium azide. […] 2×10⁴ cells/well were seeded in V-bottom 96-well plates and resuspended in 200 μL/well of the Nanobody/ligand dilution. After 90 minutes incubation at 4° C., the cells were washed with 100 μL/well assay buffer and resuspended in 100 μL/well PE-labeled Goat anti-human IgG (Southern Biotech, 2043-09). Samples were incubated for 30 minutes at 4° C., washed, and resuspended in 100 μL/well of 5 nM TOPRO3 (LifeTechnologies, T3606) solution before analysis on FACS CANTO II (BD).

[5] = molecular target: T3, human PD-1 expressed on cells; assay: flow cytometry on CHO-K1 cells expressing human PD-1; anti-FLAG + PE goat anti-mouse
Experimental: as §1, with “PD-1” for “LAG-3”, “CHO” for “3A9”, “F1804) or anti-HIS (AbD Serotec, MCA 1396).” for “F1804).”

[6] = molecular target: T3, human PD-1 expressed on cells; assay: cell-based or functional assay
[7] = molecular target: T3, human PD-1 expressed on cells; assay: flow cytometry competition: blockade of human PD-L2-hFc binding to CHO-K1 cells expressing human PD-1; PE goat anti-human IgG
Experimental: as §2

human PD-1-hFc [8] = molecular target: T4, human PD-1-hFc (human, UniProt Q15116 25-170); assay: SPR, Biacore T100; hPD-1-hFc immobilised on CM5, Nanobody as analyte; Langmuir with mass transport
T4 construct: also called hPD-1-hFc; hPD1-hFc; not shown: human Fc
Experimental: (§3) Kinetic analysis of the Nanobodies was performed by SPR technology, using the Biacore T100 instrument (GE Healthcare). HBS-EP+(0.01 M HEPES pH 7.4, 0.15 M NaCl, 3 mM EDTA, 0.05% v/v Surfactant P20) was used as running buffer and the experiments were performed at 25° C. Two flow channels of a Series S Sensor Chip CM5 were activated with EDC (200 mM)/NHS (50 mM). hPD-1-hFc was injected (4 times) at 5 μg/ml in suitable immobilization buffer (10 mM sodium acetate pH4.5) over one surface to render immobilization levels of 303 RU. After immobilization, surfaces were deactivated with 1M ethanolamine/HCl (pH 8.5). The flow rate during the sensor preparation was set on 5 μl/min.
(§4) After each cycle (i.e. before a new Nanobody injection step) the hPD1-hFc surfaces were regenerated with a 1 minute injection 10 mM Glycine pH1.5 at 45 μl/min. Sensorgram processing and data analysis was performed with Biacore T100 Evaluation Software Version 2.0.4 (GE Healthcare). Sensorgrams showing Nanobody binding were obtained after double referencing by subtracting 1) non-specific binding to reference flow channel and 2) HBS-EP+injection. Processed curves were evaluated via fitting with the model ‘Langmuir with Mass Transport’.

human PD-1-hFc [9] = molecular target: T4, human PD-1-hFc; assay: SPR, Biacore T100; hPD-1-hFc immobilised on CM5 (303 RU), Nanobody as analyte; Langmuir with mass transport
Experimental: as §3, §4

T3 sequence (Q15116 25-288 limits assumed): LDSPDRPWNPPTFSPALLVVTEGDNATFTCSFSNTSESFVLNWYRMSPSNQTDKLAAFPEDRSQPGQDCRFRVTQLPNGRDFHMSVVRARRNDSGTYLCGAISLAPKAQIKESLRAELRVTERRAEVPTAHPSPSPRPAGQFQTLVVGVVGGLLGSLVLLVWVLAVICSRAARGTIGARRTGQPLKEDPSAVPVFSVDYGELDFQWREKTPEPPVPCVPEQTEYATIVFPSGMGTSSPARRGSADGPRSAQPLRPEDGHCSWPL
T4 sequence (Q15116 25-170 limits assumed): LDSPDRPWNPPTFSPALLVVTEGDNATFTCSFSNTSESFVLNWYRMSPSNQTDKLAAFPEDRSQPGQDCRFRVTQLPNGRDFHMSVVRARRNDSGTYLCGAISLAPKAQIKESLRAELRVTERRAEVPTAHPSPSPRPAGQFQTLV

Row | Binder | IC50 (read off the curve) [4] [nM] | IC50 (read off the curve) [7] [pM] | Kd (human PD-1-hFc [8]) [nM] | koff (human PD-1-hFc [8]) [s⁻¹] | kon (human PD-1-hFc [8]) [M⁻¹ s⁻¹] | Kd (human PD-1-hFc [9]) [nM] | koff (human PD-1-hFc [9]) [s⁻¹] | kon (human PD-1-hFc [9]) [M⁻¹ s⁻¹] | further results
1 | B1 |  |  |  |  |  |  |  |  | Kd (human LAG-3-hFc [1]): 21 nM; koff (human LAG-3-hFc [1]): 0.019 s⁻¹; kon (human LAG-3-hFc [1]): 920000 M⁻¹ s⁻¹; IC50 (read off the curve) (human LAG-3-hFc [2]): ~30 nM; EC50 (read off the curve) [3]: ~2 nM
2 | B2 |  |  |  |  |  |  |  |  | IC50 (read off the curve) (human LAG-3-hFc [2]): ~20 nM; EC50 (read off the curve) [3]: ~2 nM
3 | B3 | ~0.6 | ~600 |  |  |  |  |  |  | EC50 (read off the curve) [5]: ~900 pM; EC50 (read off the curve), IL-2 promoter luciferase RLU [6]: ~900 pM
4 | B4 | ~1 | ~900 | 1.3 | 0.0032 | 2.5e+06 | 1.3 | 0.0032 | 2.5e+06 | 
5 | B5 | ~1 | ~900 |  |  |  |  |  |  | 
6 | B6 | ~0.3 | ~300 |  |  |  |  |  |  | EC50 (read off the curve) [5]: ~900 pM
7 | B7 | ~1 | ~1000 | 0.29 | 0.00059 | 2e+06 | 0.29 | 0.00059 | 2e+06 | 
8 | B8 | ~1 | ~900 | 2.4 | 0.0075 | 3.2e+06 | 2.4 | 0.0075 | 3.2e+06 | 
